Assay results: paper PMC9215706 (Cell reports, 2022)

Biological target: T1, Recombinant Ubiquitin activating enzyme E1 (human) - UBA1 (human, UniProt P22314 1-1058)
T1 sequence: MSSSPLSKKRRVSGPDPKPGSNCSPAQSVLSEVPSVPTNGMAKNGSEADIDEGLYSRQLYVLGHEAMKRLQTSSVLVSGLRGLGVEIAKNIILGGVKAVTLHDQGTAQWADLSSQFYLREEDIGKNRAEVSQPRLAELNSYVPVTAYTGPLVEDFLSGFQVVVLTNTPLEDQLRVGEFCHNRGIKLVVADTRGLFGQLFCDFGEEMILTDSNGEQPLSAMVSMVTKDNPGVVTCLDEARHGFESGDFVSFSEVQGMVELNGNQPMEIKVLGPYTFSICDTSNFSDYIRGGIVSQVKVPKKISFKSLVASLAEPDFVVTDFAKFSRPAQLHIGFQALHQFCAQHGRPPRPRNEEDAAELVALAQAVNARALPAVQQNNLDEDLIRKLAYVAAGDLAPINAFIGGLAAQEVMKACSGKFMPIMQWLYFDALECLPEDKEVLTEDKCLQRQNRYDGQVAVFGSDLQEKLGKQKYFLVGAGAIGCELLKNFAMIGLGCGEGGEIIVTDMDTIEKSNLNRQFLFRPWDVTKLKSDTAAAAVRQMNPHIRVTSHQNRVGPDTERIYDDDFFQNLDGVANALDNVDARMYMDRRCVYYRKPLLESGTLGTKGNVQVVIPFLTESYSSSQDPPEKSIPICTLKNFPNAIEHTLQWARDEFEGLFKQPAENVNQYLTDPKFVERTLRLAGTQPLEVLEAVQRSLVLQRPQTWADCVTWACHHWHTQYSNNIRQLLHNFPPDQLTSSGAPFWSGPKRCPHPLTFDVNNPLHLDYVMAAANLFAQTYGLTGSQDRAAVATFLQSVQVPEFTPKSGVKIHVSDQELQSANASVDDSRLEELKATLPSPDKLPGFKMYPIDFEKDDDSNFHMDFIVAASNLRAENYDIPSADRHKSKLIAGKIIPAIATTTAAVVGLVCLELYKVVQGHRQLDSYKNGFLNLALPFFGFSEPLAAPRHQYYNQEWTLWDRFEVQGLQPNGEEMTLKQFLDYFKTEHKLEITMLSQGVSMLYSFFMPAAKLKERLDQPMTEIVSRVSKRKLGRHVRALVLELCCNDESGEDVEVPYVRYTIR
Experiment: in vitro oxidation and non-reducing immunoblot of a disulfide-linked complex

- binding result: binds
B1: recombinant Rad6 (enzyme)
chain: MSTPARRRLMRDFKRMKEDAPPGVSASPLPDNVMVWNAMIIGPADTPYEDGTFRLLLEFDEEYPNKPPHVKFLSEMFHPNVYANGEICLDILQNRWTPTYDVASILTSIQSLFNDPNPASPANVEAATLFKDHKSQYVKRVKETVEKSWEDDMDDMDDDDDDDDDDDDDEAD
